For assay [1], the target named is CD16A (FcgammaRIIIA) on primary human NK-cells (human) (UniProt P08637). In words: cell-based or functional assay.
Assay [2] has the same target. Briefly: flow cytometry titration on primary human NK-cells, 37 C; detection with anti-His mAb, FITC goat anti-mouse IgG.
The target is the same in assay [3]. Briefly: flow cytometry, titration on primary human NK-cells at 37 C, buffer; detection with anti-His mAb.
Assay [4] deals with T1, CD16A (FcgammaRIIIA) on primary human NK-cells (human, UniProt P08637 17-208).
T1 construct: The assays used primary human NK-cells
T1 sequence (P08637 17-208): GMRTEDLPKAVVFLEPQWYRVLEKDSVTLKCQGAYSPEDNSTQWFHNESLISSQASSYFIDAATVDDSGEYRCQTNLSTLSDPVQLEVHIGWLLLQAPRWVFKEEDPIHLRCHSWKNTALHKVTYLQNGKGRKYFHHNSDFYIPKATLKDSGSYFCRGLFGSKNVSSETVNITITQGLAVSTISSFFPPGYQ
In words: flow cytometry, titration on primary human NK-cells at 37 C in presence of 10 mg/mL polyclonal human IgG (competitor). (A flow cytometer gives signals particle by particle.)

Assay [5] addresses T1, CD16A (FcgammaRIIIA) on primary human …. In words: flow cytometry titration on primary human NK-cells, 37 C, buffer without IgG; detection with BCMA(1-54)-GCN4-His, anti-His mAb, FITC goat anti-mouse IgG.
The target in assay [6] is T2, B-cell maturation antigen (BCMA) on myeloma cell lines (human, UniProt Q02223 1-184).
T2 construct: whole, on cells; also called CD269; TNFRSF17
T2 sequence (looked up): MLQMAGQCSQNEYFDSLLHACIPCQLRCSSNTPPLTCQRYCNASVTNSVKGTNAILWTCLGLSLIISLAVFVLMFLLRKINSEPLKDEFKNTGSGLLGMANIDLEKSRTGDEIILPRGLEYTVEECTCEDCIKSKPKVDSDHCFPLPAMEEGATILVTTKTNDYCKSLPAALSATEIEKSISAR
In words: flow cytometry, titration on MM.1S cells; detection with CD16A-mFc.67/anti-human-FITC. As to the method:
(§1) Antibody binding was quantified by detection with CD16A-mFc.67/anti-human-FITC and flow cytometry. control antibodies anti-BCMA (ANC3B1), anti-CD38 (HB7) and anti-CS1 (235614) were added at saturating concentrations and detected by anti-mouse-Fc-FITC (ctrl.)

In assay [7] the target is T1, CD16A (FcgammaRIIIA) on primary human …. In words: flow cytometry, titration on primary human NK-cells at 37 C, buffer; apparent affinity. The protocol: (§2) Method: Serial dilutions of anti-CD16A scFv are added to primary human NK-cells at 37° C. for 45 min followed by detection of antibody binding on ice.
Assay [8] has the same target. In words: flow cytometry, titration on primary human NK-cells at 37 C, buffer; apparent affinity; detection via BCMA(1-54)-GCN4-His/anti-His.
The target of assay [9] is T2, B-cell maturation antigen (BCMA) on …. Briefly: cell-based or functional assay.
The target is the same in assay [10]. In words: flow cytometry, titration on NCI-H929 cells; detection with CD16A-mFc.67/anti-human-FITC. As to the method: as §1
The target of assay [11] is T1, CD16A (FcgammaRIIIA) on primary human …. Briefly: flow cytometry on primary human NK-cells, with against without 10 mg/mL polyclonal human IgG.
Assay [12] has the same target. Briefly: cell-based or functional assay.
Assay [13] has as its target T2, B-cell maturation antigen (BCMA) on …. In words: flow cytometry, titration on RPMI-8226 cells; detection with CD16A-mFc.67/anti-human-FITC. The protocol: as §1
Assay [14] addresses T1, CD16A (FcgammaRIIIA) on primary human …. Briefly: flow cytometry titration on primary human NK-cells, 37 C, in presence of 10 mg/mL polyclonal human IgG; detection with BCMA(1-54)-GCN4-His, anti-His mAb, FITC goat anti-mouse IgG.
Assay [15] concerns the target T2, B-cell maturation antigen (BCMA) on …. In words: flow cytometry titration on MM.1S cells; detection with CD16A-mFc.67/anti-human-FITC. As to the method: as §1
For assay [16], the target named is T1, CD16A (FcgammaRIIIA) on primary human …. In words: flow cytometry titration on primary human NK-cells, 37 C; detection with BCMA(1-54)-GCN4-His, anti-His mAb, FITC goat anti-mouse IgG. The protocol: as §2
In assay [17] the target is T2, B-cell maturation antigen (BCMA) on …. In words: cell-based or functional assay. The source holds these as a separate data set.
Assay [18] has the same target. In words: flow cytometry titration on NCI-H929 cells; detection with CD16A-mFc.67/anti-human-FITC. As to the method: as §1
The target in assay [19] is T3, CS1 on myeloma cells (UniProt Q9NQ25 23-335, limits assumed).
T3 construct: whole, on cells
In words: flow cytometry, titration on MM.1S cells; detection with CD16A-mFc.67/anti-human-FITC. As to the method: as §1

In assay [20] the target is T3, CS1 on myeloma cells. Briefly: cell-based or functional assay.
Assay [21] has as its target T3, CS1 on myeloma cells. In words: flow cytometry, titration on NCI-H929 cells; detection with CD16A-mFc.67/anti-human-FITC. As to the method: as §1
Assay [22] has as its target T3, CS1 on myeloma cells. Briefly: cell-based or functional assay. The source holds these as a separate data set.

CD16A (FcgammaRIIIA) on primary human NK-cells (human), sequence (P08637 17-208): as the sequence (P08637 17-208) above

B1: Anti-CD16A diabody (protein, not shown: small tags and cut ends)
VL: SYVLTQPSSVSVAPGQTATISCGGHNIGSKNVHWYQQRPGQSPVLVIYQDNKRPSGIPERFSGSNSGNTATLTISGTQAMDEADYYCQVWDNYSVLFGGGTKLTVL
VH: QVQLVQSGAEVKKPGESLKVSCKASGYTFTSYYMHWVRQAPGQGLEWMGAIEPMYGSTSYAQKFQGRVTMTRDTSTSTVYMELSSLRSEDTAVYYCARGSAYYYDFADYWGQGTLVTVSS
modifications: diabody linker not stated
Consider B1, for which the EC50 of antibody-induced NK-cell-NK-cell lysis (4 h calcein release) in [1] is 0.659 nM.

B2: Anti-CD16A scFv (scFv, V domains shown, part only)
VL: SYVLTQPSSVSVAPGQTATISCGGHNIGSKNVHWYQQRPGQSPVLVIYQDNKRPSGIPERFSGSNSGNTATLTISGTQAMDEADYYCQVWDNYSVLFGGGTKLTVL
VH: QVQLVQSGAEVKKPGESLKVSCKASGYTFTSYYMHWVRQAPGQGLEWMGAIEPMYGSTSYAQKFQGRVTMTRDTSTSTVYMELSSLRSEDTAVYYCARGSAYYYDFADYWGQGTLVTVSS
In turn, B2 gave an EC50 (read off the curve) in [2] of 10 nM. In assay [3], the Kd is 12.2 nM.

B3: BCMA/CD16A-directed tandem diabody in variant 4 (bispecific antibody)
chain: QVQLVQSGAEVKTPGEPLKISCKGSGYSFTDSWIGWVRQMPGKGLEWMGIIYAGDSDARYSPSFQGQVTISADTSTSTVYLQWSSLKASDTAMYYCARNFGDHWGQGTLVTVSSGGSGGSGGSGGSSYVLTQPSSVSVAPGQTATISCGGHNIGSKNVHWYQQRPGQSPVLVIYQDNKRPSGIPERFSGSNSGNTATLTISGTQAMDEADYYCQVWDNYSVLFGGGTKLTVLGGSQVQLVQSGAEVKKPGESLKVSCKASGYTFTSYYMHWVRQAPGQGLEWMGAIEPMYGSTSYAQKFQGRVTMTRDTSTSTVYMELSSLRSEDTAVYYCARGSAYYYDFADYWGQGTLVTVSSGGSGGSGGSGGSSYELTQSPSVSVAPGQTARIFCGGDNIGSKNVHWYQQKPGQAPVLVIYRDSNRPSGIPERFSGANSENTATLTISRAQAGDEADYYCQVWDSRTYVFGTGTKLTVL
notes: also called tandem diabody variant 4; Tandem diabody (v4)
Regarding B3, the Kd stood at 3.6 nM in assay [4]; 11.5 nM in [6]; 1.2 nM in assay [7]; 1.2 nM in [8]; 27.7 nM in assay [10]; 26.7 nM in assay [13]. Besides, the “EC50 (read off the curve)” value in assay [5] is approximately 1 nM; in assay [14], approximately 4 nM; in [15], approximately 10 nM; in assay [16], approximately 1 nM; in assay [18], approximately 20 nM. Also, in [9], the “EC50 of NK-cell-mediated lysis of MM.1S cells (4 h calcein release)” value was 0.0037 nM. In addition, the “EC50 of NK-cell-mediated lysis of NCI-H929 cells (4 h calcein release)” value in assay [9] is 0.0091 nM. Moreover, the “EC50 of NK-cell-mediated lysis of RPMI-8226 cells (4 h calcein release)” value in assay [9] is 0.0623 nM. Moreover, in assay [11], the “fold-change (KD with 10 mg/mL IgG against KD in buffer)” value was found to be 3 fold. For the same molecule, in [12], the “EC50 of NK-cell-mediated lysis of BCMA+ NCI-H929 cells (4 h calcein release), 10 mg/mL polyclonal human IgG” value is 0.0761 nM. The “EC50 of NK-cell-mediated lysis of BCMA+ NCI-H929 cells (4 h calcein release), buffer” value in [12] was 0.0162 nM. The “Fold-loss in potency (EC50 with 10 mg/mL IgG against buffer)” value in [12] came out at 4.7 fold. Besides, the “EC50 of NK-cell-mediated lysis of primary myeloma cells from a pleural effusion (multiple myeloma; 4 h 51Cr release)” value in assay [17] stood at 0.004 nM. In assay [17], the “EC50 of NK-cell-mediated lysis of primary myeloma cells from peripheral blood (plasma cell leukemia; 4 h 51Cr release)” value came out at 0.0063 nM.

B4: elotuzumab (antibody, V domains shown)
VH: EVQLVESGGGLVQPGGSLRLSCAASGFDFSRYWMSWVRQAPGKGLEWIGEINPDSSTINYAPSLKDKFIISRDNAKNSLYLQMNSLRAEDTAVYYCARPDGNYWYFDVWGQGTLVTVSS
VL: DIQMTQSPSSLSASVGDRVTITCKASQDVGIAVAWYQQKPGKVPKLLIYWASTRHTGVPDRFSGSGSGTDFTLTISSLQPEDVATYYCQQYSSYPYTFGQGTKVEIK
Regarding B4, the Kd with CS1 on myeloma cells [19] stood at 35.7 nM. In the assay with CS1 on myeloma cells [20], the “EC50 of NK-cell-mediated lysis of MM.1S cells (4 h calcein release)” value is 0.153 nM and the “EC50 of NK-cell-mediated lysis of NCI-H929 cells (4 h calcein release)” value was 0.394 nM. In addition, the Kd with CS1 on myeloma cells [21] amounted to 36 nM. Further, in the assay with CS1 on myeloma cells [22], the “EC50 of NK-cell-mediated lysis of primary myeloma cells (multiple myeloma; 4 h 51Cr release)” value worked out at 0.145 nM and the “EC50 of NK-cell-mediated lysis of primary myeloma cells (plasma cell leukemia; 4 h 51Cr release)” value came to 0.0782 nM.

What is called EC50 (read off the curve) is the concentration needed to bring the measured effect to its halfway point.

These data come from patent publication US20220041717A1 (AFFIMED, published 2022).
